Measurements from PMC7090010.

Tests used:
Conditions in all cases: scale: % of the maximum spliced product formation
[1] = target: split mCherry-split intein C-terminal chimeric protein, IMPDH-1 intein split at site S2
[2] = target: split mCherry-split intein C-terminal chimeric protein, NrdJ-1 intein split at site S2
[3] = target: split mCherry-split intein C-terminal chimeric protein, SspGyrB intein split at site S2
[4] = target: split mCherry-split intein C-terminal chimeric protein, gp41-1 intein split at site S2
[5] = target: split mCherry-split intein C-terminal chimeric protein, gp41-8 intein split at site S2

“split mCherry-split intein N-terminal chimeric protein, IMPDH-1 intein split at site S2 (domain or fragment)” was tested. Which in vitro trans-splicing of mixed lysates (room temperature, 100 mM Tris-HCl pH 9.0, 100 mM NaCl, 2 mM DTT): spliced mCherry by Western blot, share of the maximum spliced product within 1 h [1] did it give?
Its in vitro trans-splicing of mixed lysates (room temperature, 100 mM Tris-HCl pH 9.0, 100 mM NaCl, 2 mM DTT): spliced mCherry by Western blot, share of the maximum spliced product within 1 h is over 75.

“split mCherry-split intein N-terminal chimeric protein, NrdJ-1 intein split at site S2 (domain or fragment)” was tested. Which in vitro trans-splicing of mixed lysates (room temperature, 100 mM Tris-HCl pH 9.0, 100 mM NaCl, 2 mM DTT): spliced mCherry by Western blot, share of the maximum spliced product within 1 h [2] did it give?
The in vitro trans-splicing of mixed lysates (room temperature, 100 mM Tris-HCl pH 9.0, 100 mM NaCl, 2 mM DTT): spliced mCherry by Western blot, share of the maximum spliced product within 1 h was over 75.

For “split mCherry-split intein N-terminal chimeric protein, SspGyrB intein split at site S2 (domain or fragment)”, which in vitro trans-splicing of mixed lysates (room temperature, 100 mM Tris-HCl pH 9.0, 100 mM NaCl, 2 mM DTT): spliced mCherry by Western blot, share of the maximum spliced product within 1 h [3] is on record?
Its in vitro trans-splicing of mixed lysates (room temperature, 100 mM Tris-HCl pH 9.0, 100 mM NaCl, 2 mM DTT): spliced mCherry by Western blot, share of the maximum spliced product within 1 h is over 75.

“split mCherry-split intein N-terminal chimeric protein, gp41-1 intein split at site S2 (domain or fragment)” was tested. Which in vitro trans-splicing of mixed lysates (room temperature, 100 mM Tris-HCl pH 9.0, 100 mM NaCl, 2 mM DTT): spliced mCherry by Western blot, share of the maximum spliced product within 1 h [4] did it give?
The in vitro trans-splicing of mixed lysates (room temperature, 100 mM Tris-HCl pH 9.0, 100 mM NaCl, 2 mM DTT): spliced mCherry by Western blot, share of the maximum spliced product within 1 h was over 75.

“split mCherry-split intein N-terminal chimeric protein, gp41-8 intein split at site S2 (domain or fragment)” was tested. Which in vitro trans-splicing of mixed lysates (room temperature, 100 mM Tris-HCl pH 9.0, 100 mM NaCl, 2 mM DTT): spliced mCherry by Western blot, share of the maximum spliced product within 1 h [5] did it give?
The in vitro trans-splicing of mixed lysates (room temperature, 100 mM Tris-HCl pH 9.0, 100 mM NaCl, 2 mM DTT): spliced mCherry by Western blot, share of the maximum spliced product within 1 h was over 75.
